From the supplement of paper PMC6755084

B1: F1*; the commonest letter at each place (parent)
chain: GAGACCGCAACTGAAAAGTTGTTATCACTTGTCGTAAGACACTTTGGATGGGTTGAAGTTCTGCACGTAGAAGCAAAAGGC

Variants of: B1
Assay: fraction ligated after 30 min (ligated reads / total reads); higher = more ligase activity
Conditions: with F1*sub RNA substrate (template-directed ligation), 42 °C
Summary of the method: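 Ribozyme variants were transcribed with T7 from PCR-amplified oligo-pool templates and gel-purified. Ligated and unligated bands, separated on gel, were reverse transcribed with barcoded primers and sequenced on a MiSeq, with core bases filtered at quality ≥20. Fraction ligated per variant was computed as ligated reads divided by total reads.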

Variant	fraction ligated
GAGACCGCAACTGAAAAGTTGTTATCACTTGTCGTGAGACACTTTGGATTGGTTGAAGTTCTGCACGTAGAAGCAAAAGGC [A36G G50T]	0.751
GAGACCGCAACTGAAAAGTTGTTATCACTTGTCGTGAGACACTTTGGATCGGTTGAAGTTCTGCACGTAGAAGCAAAAGGC [A36G G50C]	0.117
GAGACCGCAACTGAAAAGTTGTTATCACTTGTCGTGAGACACTTTGGATAGGTTGAAGTTCTGCACGTAGAAGCAAAAGGC [A36G G50A]	0.41
GAGACCGCAACTGAAAAGTTGTTATCACTTGTCGTGAGACACTTTGGAAGGGTTGAAGTTCTGCACGTAGAAGCAAAAGGC [A36G T49A]	0.725
GAGACCGCAACTGAAAAGTTGTTATCACTTGTCGTGAGACACTTTGGACGGGTTGAAGTTCTGCACGTAGAAGCAAAAGGC [A36G T49C]	0.4
GAGACCGCAACTGAAAAGTTGTTATCACTTGTCGTGAGACACTTTGGAGGGGTTGAAGTTCTGCACGTAGAAGCAAAAGGC [A36G T49G]	0.761
GAGACCGCAACTGAAAAGTTGTTATCACTTGTCGTTAGACACTTTGGCTGGGTTGAAGTTCTGCACGTAGAAGCAAAAGGC [A36T A48C]	0.767
GAGACCGCAACTGAAAAGTTGTTATCACTTGTCGTTAGACACTTTGGGTGGGTTGAAGTTCTGCACGTAGAAGCAAAAGGC [A36T A48G]	0.781
GAGACCGCAACTGAAAAGTTGTTATCACTTGTCGTGAGACACTTTTGATGGGTTGAAGTTCTGCACGTAGAAGCAAAAGGC [A36G G46T]	0.825
GAGACCGCAACTGAAAAGTTGTTATCACTTGTCGTTAGACACTTTGGATGGGTTGAAGTTCTGCACGTAGAAGCAAAAGGC [A36T]	0.843
GAGACCGCAACTGAAAAGTTGTTATCACTTGTCGTGAGACACTTTGTATGGGTTGAAGTTCTGCACGTAGAAGCAAAAGGC [A36G G47T]	0.0714
GAGACCGCAACTGAAAAGTTGTTATCACTTGTCGTGAGACACTTTGCATGGGTTGAAGTTCTGCACGTAGAAGCAAAAGGC [A36G G47C]	0.0195
GAGACCGCAACTGAAAAGTTGTTATCACTTGTCGTGAGACACTTTGAATGGGTTGAAGTTCTGCACGTAGAAGCAAAAGGC [A36G G47A]	0.764
GAGACCGCAACTGAAAAGTTGTTATCACTTGTCGTTGGACACTTTGGATGGGTTGAAGTTCTGCACGTAGAAGCAAAAGGC [A36T A37G]	0.842
GAGACCGCAACTGAAAAGTTGTTATCACTTGTCGTTCGACACTTTGGATGGGTTGAAGTTCTGCACGTAGAAGCAAAAGGC [A36T A37C]	0.838
GAGACCGCAACTGAAAAGTTGTTATCACTTGTCGTTTGACACTTTGGATGGGTTGAAGTTCTGCACGTAGAAGCAAAAGGC [A36T A37T]	0.851
GAGACCGCAACTGAAAAGTTGTTATCACTTGTCGTGAGACACCTTGGATGGGTTGAAGTTCTGCACGTAGAAGCAAAAGGC [A36G T43C]	0.81

Variant	fraction ligated
GAGACCGCAACTGAAAAGTTGTTATCACTTGTCGTGAGACACGTTGGATGGGTTGAAGTTCTGCACGTAGAAGCAAAAGGC [A36G T43G]	0.776
GAGACCGCAACTGAAAAGTTGTTATCACTTGTCGTGAGACACATTGGATGGGTTGAAGTTCTGCACGTAGAAGCAAAAGGC [A36G T43A]	0.823
GAGACCGCAACTGAAAAGTTGTTATCACTTGTCGTTAGGCACTTTGGATGGGTTGAAGTTCTGCACGTAGAAGCAAAAGGC [A36T A39G]	0.842
GAGACCGCAACTGAAAAGTTGTTATCACTTGTCGTTAGCCACTTTGGATGGGTTGAAGTTCTGCACGTAGAAGCAAAAGGC [A36T A39C]	0.821
GAGACCGCAACTGAAAAGTTGTTATCACTTGTCGTTAGTCACTTTGGATGGGTTGAAGTTCTGCACGTAGAAGCAAAAGGC [A36T A39T]	0.836
GAGACCGCAACTGAAAAGTTGTTATCACTTGTCGTGAGACACTTTGGATGGGTTAAAGTTCTGCACGTAGAAGCAAAAGGC [A36G G55A]	0.867
GAGACCGCAACTGAAAAGTTGTTATCACTTGTCGTGAGACACTTTGGATGGGTTTAAGTTCTGCACGTAGAAGCAAAAGGC [A36G G55T]	0.809
GAGACCGCAACTGAAAAGTTGTTATCACTTGTCGTGAGACACTTTGGATGGGTTCAAGTTCTGCACGTAGAAGCAAAAGGC [A36G G55C]	0.773
GAGACCGCAACTGAAAAGTTGTTATCACTTGTCGTGAGACACTTAGGATGGGTTGAAGTTCTGCACGTAGAAGCAAAAGGC [A36G T45A]	0.785
GAGACCGCAACTGAAAAGTTGTTATCACTTGTCGTGAGACACTTGGGATGGGTTGAAGTTCTGCACGTAGAAGCAAAAGGC [A36G T45G]	0.353
GAGACCGCAACTGAAAAGTTGTTATCACTTGTCGTGAGACACTTCGGATGGGTTGAAGTTCTGCACGTAGAAGCAAAAGGC [A36G T45C]	0.614
GAGACCGCAACTGAAAAGTTGTTATCACTTGTCGTGAGACACTGTGGATGGGTTGAAGTTCTGCACGTAGAAGCAAAAGGC [A36G T44G]	0.856
GAGACCGCAACTGAAAAGTTGTTATCACTTGTCGTGAGACACTCTGGATGGGTTGAAGTTCTGCACGTAGAAGCAAAAGGC [A36G T44C]	0.85
GAGACCGCAACTGAAAAGTTGTTATCACTTGTCGTGAGACACTATGGATGGGTTGAAGTTCTGCACGTAGAAGCAAAAGGC [A36G T44A]	0.848
GAGACCGCAACTGAAAAGTTGTTATCACTTGTCGTTAGACGCTTTGGATGGGTTGAAGTTCTGCACGTAGAAGCAAAAGGC [A36T A41G]	0.794
GAGACCGCAACTGAAAAGTTGTTATCACTTGTCGTTAGACTCTTTGGATGGGTTGAAGTTCTGCACGTAGAAGCAAAAGGC [A36T A41T]	0.819
GAGACCGCAACTGAAAAGTTGTTATCACTTGTCGTTAGACCCTTTGGATGGGTTGAAGTTCTGCACGTAGAAGCAAAAGGC [A36T A41C]	0.774
